doi:10.1101/2025.07.17.665365, “A protein-dependent riboswitch activates ribosomal frameshifting in cardioviruses”

Legend:
TMEV 2A [1] = molecular target: T1, TMEV 2A (Theiler's murine encephalitis virus …, UniProt P08545 923-1055); assay: EMSA; EMSA: 10 mM Tris-HCl pH 7.4, ~140 mM NaCl, 2 mM Mg acetate, 1 mM DTT, 5% glycerol, 50 nM RNA, 37 C; MST: 20 mM Tris-HCl pH 7.4, 400 mM NaCl, 1 mM MgCl2, 1 mM DTT, 0.05% Tween-20, 0.1 mg/ml tRNA, 22 C; smFRET: 10 mM Tris-HCl pH 7.4, 150 mM NaCl, 1 mM MgCl2, 1 mM DTT, 0.1 mg/ml BSA, ambient; conditions: protein: recombinant, tags: His6-MBP, TEV-cleaved/removed, label: 5' Cy5 or AzDye647
T1 sequence: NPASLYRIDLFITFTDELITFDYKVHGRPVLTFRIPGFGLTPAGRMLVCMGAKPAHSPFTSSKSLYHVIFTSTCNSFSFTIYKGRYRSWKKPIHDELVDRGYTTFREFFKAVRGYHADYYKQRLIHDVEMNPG

TMEV 2A [2] = molecular target: T1, TMEV 2A; assay: EMSA; range given jointly for +1 and -1 bp; EMSA: 10 mM Tris-HCl pH 7.4, ~140 mM NaCl, 2 mM Mg acetate, 1 mM DTT, 5% glycerol, 50 nM RNA, 37 C; MST: 20 mM Tris-HCl pH 7.4, 400 mM NaCl, 1 mM MgCl2, 1 mM DTT, 0.05% Tween-20, 0.1 mg/ml tRNA, 22 C; smFRET: 10 mM Tris-HCl pH 7.4, 150 mM NaCl, 1 mM MgCl2, 1 mM DTT, 0.1 mg/ml BSA, ambient; conditions: protein: recombinant, tags: His6-MBP, TEV-cleaved/removed, label: 5' Cy5 or AzDye647
TMEV 2A [3] = molecular target: T1, TMEV 2A; assay: X-ray crystallography; 1.9 A; pseudoknot; EMSA: 10 mM Tris-HCl pH 7.4, ~140 mM NaCl, 2 mM Mg acetate, 1 mM DTT, 5% glycerol, 50 nM RNA, 37 C; MST: 20 mM Tris-HCl pH 7.4, 400 mM NaCl, 1 mM MgCl2, 1 mM DTT, 0.05% Tween-20, 0.1 mg/ml tRNA, 22 C; smFRET: 10 mM Tris-HCl pH 7.4, 150 mM NaCl, 1 mM MgCl2, 1 mM DTT, 0.1 mg/ml BSA, ambient; conditions: protein: recombinant; tags: His6-MBP, TEV-cleaved/removed; stem-loop alone
TMEV 2A [4] = molecular target: T1, TMEV 2A; assay: smFRET; 0.5 uM 2A; E 0.58 to 0.83; EMSA: 10 mM Tris-HCl pH 7.4, ~140 mM NaCl, 2 mM Mg acetate, 1 mM DTT, 5% glycerol, 50 nM RNA, 37 C; MST: 20 mM Tris-HCl pH 7.4, 400 mM NaCl, 1 mM MgCl2, 1 mM DTT, 0.05% Tween-20, 0.1 mg/ml tRNA, 22 C; smFRET: 10 mM Tris-HCl pH 7.4, 150 mM NaCl, 1 mM MgCl2, 1 mM DTT, 0.1 mg/ml BSA, ambient; conditions: protein: recombinant; tags: His6-MBP, TEV-cleaved/removed; label: 5' Cy5; U31 Cy3; stem-loop / pseudoknot
TMEV 2A [5] = molecular target: T1, TMEV 2A; assay: smFRET; 0.5 uM 2A; E 0.85 to 0.63; EMSA: 10 mM Tris-HCl pH 7.4, ~140 mM NaCl, 2 mM Mg acetate, 1 mM DTT, 5% glycerol, 50 nM RNA, 37 C; MST: 20 mM Tris-HCl pH 7.4, 400 mM NaCl, 1 mM MgCl2, 1 mM DTT, 0.05% Tween-20, 0.1 mg/ml tRNA, 22 C; smFRET: 10 mM Tris-HCl pH 7.4, 150 mM NaCl, 1 mM MgCl2, 1 mM DTT, 0.1 mg/ml BSA, ambient; conditions: protein: recombinant; tags: His6-MBP, TEV-cleaved/removed; label: 5' Cy5; 3' Cy3; stem-loop / pseudoknot
TMEV 2A [6] = molecular target: T1, TMEV 2A; assay: SEC-SAXS; SASDWS5; EMSA: 10 mM Tris-HCl pH 7.4, ~140 mM NaCl, 2 mM Mg acetate, 1 mM DTT, 5% glycerol, 50 nM RNA, 37 C; MST: 20 mM Tris-HCl pH 7.4, 400 mM NaCl, 1 mM MgCl2, 1 mM DTT, 0.05% Tween-20, 0.1 mg/ml tRNA, 22 C; smFRET: 10 mM Tris-HCl pH 7.4, 150 mM NaCl, 1 mM MgCl2, 1 mM DTT, 0.1 mg/ml BSA, ambient; conditions: protein: recombinant; tags: His6-MBP, TEV-cleaved/removed; 7 bp stem-loop with unpaired 5' tail alone; pseudoknot in complex

Question: Does CAAGGUGCGGUGCACUAAAUCCCGCACCCC (structured_RNA) [-2 bp stem 2] bind (TMEV 2A [1]; 5 bp S2)?
Answer: no binding

Question: Does CAAGGGCGGUGCUAACUAAAUCCCUAGCACCCC (structured_RNA) [dU19 stem 1] bind (TMEV 2A [1]; stem-loop / pseudoknot)?
Answer: no binding

Question: How did the Kd (TMEV 2A [2]; 6 bp S2) turn out when CAAGGUGCGGUGCUACUAAAUCCCAGCACCCC (structured_RNA) [-1 bp stem 2] was run?
Answer: ~442 nM

Question: Which Kd (TMEV 2A [1]; stem-loop / pseudoknot) does the source give for CAAGGUGCCCACGAUACUAAAUCCCAUCGUGGCC (structured_RNA) [Stem 2 swap] here?
Answer: ~313 nM

Question: Does CAACCUCCGGUGCUAACUAAAUGGGUAGCACCCC (structured_RNA) [Stem 1 swap] bind (TMEV 2A [1]; stem-loop / pseudoknot)?
Answer: no binding

Question: CAAGGUGGGGUGCUUACUAAAUCCCAAGCACCCC (structured_RNA) [+1 bp stem 2] was tested. Which Kd (TMEV 2A [2]; 8 bp S2) did it give?
Answer: ~442 nM

Question: Does CAAGGUGCGGUGCUAACUAAAUCCCUAGCACCCC (structured_RNA) [TMEV minimal stimulatory element (oligo 1)] bind (TMEV 2A [3])?
Answer: binds

Question: Does CAAGGUGCGGUGCUAACUAAAUCCCUAGCACCCC (structured_RNA, U31 Cy3 (internal)) [TMEV internal reporter RNA] bind (TMEV 2A [4])?
Answer: binds

Question: Does CAAGGUGCGGUGCUAACUAAAUGCCUAGCACCCC (structured_RNA) [C36G] bind (TMEV 2A [1]; stem-loop)?
Answer: no binding

Question: Does CAAGGUGCGGUGCUAACUAAAUCGCUAGCACCCC (structured_RNA) [C37G] bind (TMEV 2A [1]; stem-loop)?
Answer: no binding

Question: Does CAAGGUGCGGUGCUAACUAAAUCCCUAGCACCCC (structured_RNA) [TMEV end reporter RNA] bind (TMEV 2A [5])?
Answer: binds

Question: Does CAAUUUUCGGUGCUAACUAAAUAAAUAGCACCCC (structured_RNA) [UA stem 1] bind (TMEV 2A [1]; stem-loop / pseudoknot)?
Answer: no binding

Question: Does CCACAAGGUGCGGUGCUAACUAAAUCCCUAGCACCCC (structured_RNA) [TMEV stimulatory element, SAXS RNA] bind (TMEV 2A [6])?
Answer: binds

Question: Does CAAAAUACGGUGCUAACUAAAUUUUUAGCACCCC (structured_RNA) [AU stem 1] bind (TMEV 2A [1]; stem-loop / pseudoknot)?
Answer: no binding
